Results taken from US20200131515.

Experiments:
Test in all cases: SPR
[1] = tested on: H-LDL particle (small dense LDL); conditions: 5' disulfide, unit inferred
[2] = tested on: HDL particle (high-density lipoprotein); conditions: 5' disulfide; 100 nM HDL, selection buffer
[3] = tested on: L-LDL particle (large fluffy LDL); conditions: 5' disulfide; unit inferred
[4] = tested on: LDL particle (low-density lipoprotein, apoB-containing), commercial; conditions: 5' disulfide
[5] = printed kD differs from kd/ka of same row
[6] = 1 nM LDL, selection buffer, repeat on gold chip
[7] = 1 nM LDL added to 1% blood serum in selection buffer
[8] = aptamer on gold chip, unit inferred

Sequence	Kd [1, 5] [pM]	Kd [2] [pM]	Kd [3] [pM]	Kd [4, 6] [pM]	Kd [1] [pM]	Kd [4, 7] [pM]	Kd [4, 8] [pM]
AACTACATGGTATGTGGTGAACTACCTCGATTTTATATTATTTCGCTTACCAACAACTGCAGAGACGTACAATGTACCC [LDL-A1]	1230	9010	32.7	1.68			
AACTACATGGTATGTGGTGAACTAAACCATTCTTGTCTCGCATTTTTCTCTTTTATATTATTTGACGTACAATGTACCC [LDL-A38]		11500		20.7	234	17.8	45.5
AACTACATGGTATGTGGTGAACTGTCAGCTTCTTCTATATAATTCACCTTGCCTCTCGTTCCTGACGTACAATGTACCC [LDL-A2]		9690	15.9	15		5.12	42.1
AACTACATGGTATGTGGTGAACTCACGCGCATAACCCTTTTTTCACCTGCCCTTTTAACTAATGACGTACAATGTACCC [LDL-A274]	792	8260	482	21.4		114	77.3
AACTACATGGTATGTGGTGAACTAACCTTAATTTACCCTTGTTTTATCATTTCCATCATAGCTGACGTACAATGTACCC [LDL-A12]		7250		10.8	23	46.6	49.7
